The DeepSol protein solubility set

Experiment: soluble on expression in E. coli; label from the status in PepcDB or PDB records

Sequence	soluble on expression in E. coli
GHMKLKTKTMEWSGNSLKLLDQRKLPFIEEYVECKTHEEVAHAIKEMIVRGAPAIGVAAAFGYVLGLRDYKTGSLTDWMKQVKETLARTRPTAVNLFWALNRMEKVFFENADRENLFEILENEALKMAYEDIEVNKAIGKNGAQLIKDGSTILTHCNAGALATVDYGTALGVIRAAVESGKRIRVFADETRPYLQGARLTAWELMKDGIEVYVITDNMAGWLMKRGLIDAVVVGADRIALNGDTANKIGTYSLAVLAKRNNIPFYVAAPVSTIDPTIRSGEEIPIEERRPEEVTHCGGNRIAPEGVKVLNPAFDVTENTLITAIITEKGVIRPPFEENIKKILEVGS	soluble
GHMLVYNQEELVRFVEEAKQYARYGKVADYIPALGKANPNELSIAIYTPDDEVVSAGDVTVKVTLQSISKIIALALVLIDRGEDEVFHKVGMEPTDYPFHSIAKLEEKPAKPLNPMINAGALVVTSMIQGGSVSERLERLLAFVRRLAGNERISYSDEVARSEFETAFLNRSLCYFLKQHRIIDEDVEELMELYTKQCAIEMTCIDLARIGLVLALDGRDPHSSEPLMPLDVARICKTFMVTCGMYNSSGEFAIKVGIPAKSGVSGGILAAVPGRCGIGVFGPALDDKGNSLTGVKLLERLSKTYSLSIF	soluble
GHMPFEWVKQYDYEDIIYETYNGIAKITINRPEVHNAFRPKTVNEMIDAFTKARDDSNIGVIILTGAGGKAFCSGGDQKVRGHGGYVGEDEIPRLNVLDLQRLIRVIPKPVIAMVAGYAIGGGHVLHVVCDLTIAADNAIFGQTGPKVGSFDGGYGAGYLARIVGHKKAREIWYLCRQYTAQEALEMGLVNKVVPLEQLEEETVKWAQEILEKSPTAIRFLKAAFNADSDGLAGIQQLAGDATLLFYTTEEAKEGMRAFKEKRKPDFSQFPRFP	soluble
GIDPFTKANSEACRDGLRAVMECRNVTHLLQQELTEAQKGFQDVEAQAATCNHTVMALMASLDAEKAQGQKKVEELEGEITTLNHKLQDASAEVERLRRENQVLSVRIADKK	soluble
GIDPFTMVALSLKISIGNVVKTMQFEPSTMVYDACRMIRERIPEALAGPPNDFGLFLSDDDPKKGIWLEAGKALDYYMLRNGDTMEYRKKQRPLKIRMLDGTVKTIMVDDSKTVTDMLMTICARIGITNHDEYSLVRELMEEKKDELNWLDHGRTLREQGVEEHETLLLRRKFFYSDQ	soluble
GILAEAHGTRPDLTDQPLPDADHTWYTDGSSLLQEGQRKAGAAVTTETEVIWAKALPAGTSAQRAELIALTQALKMAEGKKLNVYTDSRYAFATAHLTSEGKEIKNKDEILALLKALFLPKRLSIIHCPGHQKGHSAEARGNRMADQAARKAAITETPDTSTLL	soluble
GIQPVISAQEQETQIVLYGKLVEARQKHANKMDVPPAILATNKILVDMAKMRPTTVENVKRIDGVSEGKAAMLAPLLEVIKHFCQTNSVQTDLFSSTKPQEEQ	soluble
GKEHILVCISPSQGNEKVIRTAARMAEALKGKLTAVFVETPEYEESSIKEQESLRKNLRLAEQLGAQISSVYGEDISQQLAEYANVSQATKIILGRSSKRKSWLKPKLVDKLSEQIDSTDIYIIPDTQP	not soluble
GKKDTQSITLEELAKIIKKCKHVVALTGSGTSAESNIPSFRGSSNSIWSKYDPRIYGTIWGFWKYPEKIWEVIRDISSDYEIEINNGHVALSTLESLGYLKSVVTQNVDGLHEASGNTKVISLHGNVFEAVCCTCNKIVKLNKIMLQKTSHFMHQLPPECPCGGIFKPNIILFGEVVSSDLLKEAEEEIAKCDLLLVIGTSSTVSTATNLCHFACKKKKKIVEINISKTYITNKMSDYHVCAKFSELTKVANILKGSSEKNKKIM	soluble
GKKLEPIEELTIDVPEEFMGVVMEKLGPRKAELVNMTSAVNGYTRLEFKIPSRGLIGFRNEFMTDTKGNGIMNSTLIDYEPFRGDIPERSRGSIVVFETGVSVVYGLYSAQERGRLFVGAGVDVYEGMV	not soluble
GKRDNLEIDRTGLALTAFYARNLAVPERRRVEHPQVLRGKQLFHEAGCPACHVPKFVTHRLKDQPEQSFQLIWPYTDLLLHDMGEGLADGRPEGRATGREWRTAPLWGIGLTEQVSGHANFLHDGRARSILEAVLWHGGEAEAARARVMALPAPDRAALVAFVEDL	not soluble
GLGKFIETCRNTQLAGSSELAAECKTRAQQFVSTKINLDDHIANIDGTLKWQPSNFSQTCYNSAIQGSVLTSTCERTNGGYNTSSIDLNSVIENVDGSLKYE	soluble
GMAQNIYDQPDFFAGYSQLGRSIEGLDGAAEWPALRAMLPEVGGLRIVDLGCGFGWFCRWAHEHGASYVLGLDLSEKMLARARAAGPDTGITYERADLDKLHLPQDSFDLAYSSLALHYVEDVARLFRTVHQALSPGGHFVFSTEHPIYMAPARPGWAIDAEGRRTWPIDRYLVEGPRKTDWLAKGVVKHHRTVGTTLNALIRSGFAIEHVEEFCPTDAQITARPELAEELDRPMFLLVSARR	soluble
GMDQESNATSQDILKQHAAHYESDMGGLPEALVQLAEYAPETFDAYSRMRTTMLKSEADGAKLPLKYKHLILVVLDAIRDEPIGIVNHTRAAMNAGLSVDELIEGILLGIIVYGMPAWGKTGRKAVTFAVEFEKELAGKRT	soluble
GMEQLQKRKIYDTTASNASTGILNGKSSNVLNWDDVRFSWAYPLYKNMLANFWTPFEINMSHDAKQFPTLTETEQEAFKKIIGLLAFLDSVQTDYSMRAAEYLTDSSLAALMSVLSFQEVVHNQSYSYVLSSLVPKATQDEIFEYWKHDDVLKERNEFIIDGYEKFVDNPTPKTFLESIVYDVILEGLNFYSGFAFFYNLARNQKMVSTSTMINYINRDEQLHVYLFTNIFKELLVEFPELNTEETKTFVKTTLMKAADLEKDWFRYIIGDKIPGINPEDMETYISFIANKRAVQLGMEKPYPEIKHNPMKWIRAYEDVNSGKSDFFEQKSRQYAKVSADNGFDEL	soluble
GMKGENMMVKLIALYEQPEDKQAFDEHYFNTHAPLTRKIPGLRDMKVTRIVGSPMGESKFYLMCEMYYDDHESLQQAMRTDEGKASGKDAMKFAGKLLTLMIGEEMDE	soluble
GMKSSQPFIYEAHAARVVFGAGSSSQVAAEVERLGAKRALVLCTPNQQAEAERIADLLGPLSAGVYAGAVMHVPIESARDATARAREAGADCAVAVGGGSTTGLGKAIALETGMPIVAIPTTYAGSEVTPVYGLTEAGTKRTGRDPRVLPRTVIYDPALTVGLPRGLSVTSALNAIAHAAEGLYARDANPVMSLMAEEGIRALAAGIPAVFNDPADLDARSQCLYGAWLCGTVLGGVGMALHHKLCHTLGGSFNLPHAETHTIVLPHALAYNAAAVPEAMARIRRATGAGEQSAAATLFDLAQRHGAPVALRDIGMREEDLDRAADIALASPYWNPRPIEREPIRALLQAAYEGVRPD	soluble
GMKTLCTHSLPKEKMPYLLRSGEGERYLFGRQVATVMANGRSTGDLFEIVLLSGGKGDAFPLHVHKDTHEGILVLDGKLELTLDGERYLLISGDYANIPAGTPHSYRMQSHRTRLVSYTMKGNVAHLYSVIGNPYDHAEHPPYASEEVSNERFAEAAAVADIVFLDEAKPACSAKLAELTELPDGAVPYVLESGEGDRLLTGDQLHRIVAAQKNTDGQFIVVSSEGPKGDRIVDHYHEYHTETFYCLEGQMTMWTDGQEIQLNPGDFLHVPANTVHSYRLDSHYTKMVGVLVPGLFEPFFRTLGDPYEGHIFPCEPQALRFDRILQNIEALDLKVMKP	soluble
GMKVTNYQGATIDPYSKGLGMVPGTSIQLTDAARLEWNLLNEDVSLPAAVLYADRVEHNLKWMQAFVAEYGVKLAPHGKTTMAPQLFRRQLETGAWGITLATAHQVRAAYHGGVSRVLMANQLVGRRNMMMVAELLSDPEFEFFCLVDSVEGVEQLGEFFKSVNKQLQVLLELGVPGGRTGVRDAAQRNAVLEAITRYPDTLKLAGVELYEGVLKEEHEVREFLQSAVAVTRELVEQERFARAPAVLSGAGSAWYDVVAEEFVKASETGKVEVVLRPGCYLTHDVGIYRKAQTDIFARNPVAKKMGEGLLPALQLWAYVQSIPEPDRAIIGLGKRDSAFDAGMPEPARHYRPGNEAPRDIAASEGWEIFGLMDQHAYLRIPAGADLKVGDMIAFDISHPCLTFDKWRQVLVVDPAYRVTEVIETFF	soluble
GMLTDMQRDSASSSTVTTEQIVYGALPLTTINEPECRAIAITSINGSATLSGVSGPMGDQTDADLLIQLRGWADAIVVGAETARKENYGPVVLPHGIKNQRQKLGRCGLPKLTLLSKSLYFDFSSELFSPDLPSELSPLVITQQPANNSEQWDQRLQKLIDVGVEVIVAPTSTNPLKIAFDALHARRLKKISIEGGPSVYRQALSLGIVDRLHLTIAPNIICPVESPLFGKISDDSFTTRLVLEMLSSSPNGLIFSRYKVIRDTLGNPTQ	soluble
GMQTKVINFNDKFSLFNQHWSPRVIAEMNDYQFKLVKVEGEFVWHEHADTDEVFIVMEGTLQIAFRDQNITLQAGEMYVIPKGVEHKPMAKEECKIMIIEPR	soluble
GMRLPLNQRVAILLHEGTTGTIGKTGLALLRYSEAPIVAVIDRNCAGQSLREITGIYRYVPIVKSVEAALEYKPQVLVIGIAPKGGGIPDDYWIELKTALQAGMSLVNGLHTPLANIPDLNALLQPGQLIWDVRKEPANLDVASGAARTLPCRRVLTVGTDMAIGKMSTSLELHWAAKLRGWRSKFLATGQTGVMLEGDGVALDAVRVDFAAGAVEQMVMRYGKNYDILHIEGQGSLLHPGSTATLPLIRGSQPTQLVLVHRAGQTHNGNNPHVPIPPLPEVIRLYETVASGGGAFGTVPVVGIALNTAHLDEYAAKEAIAHTIAETGLPCTDVVRFGADVLLDAVMQN	soluble
GMSFENYFPLWNDLNTAQKKLISDNLITQHVKKGTIIHNGNMDCTGLLLVKSGQLRTYILSDEGREITLYRLFDMDMCLLSASCIMRSIQFEVTIEAEKDTDLWIIPAEIYKGIMKDSAPVANYTNELMATRFSDVMWLIEQIMWKSLDKRVASFLLEETSIEGTNELKITHETIANHLGSHREVITRMLRYFQVEGLVKLSRGKITILDSKRLETLQRS	soluble
GMSNLETAKAMIAAYNAQDVDTYVSYMTDDACEANYRGDVVREGKEGTRSGLAAAFARWPQNHAEIKDAQQVGTYVLMREHVTRGPATDGSPLVEPFDVVAVYSFEGDKCSRVEFIR	soluble
GMSTPTPDTDVEQVGLANTAFYEAMERGDFETLSSLWLTPADLGVDEEYHDPADAGVVSCVHPGWPVLSGRGEVLRSYALIMANTEYIQFFLTDVHVSVTGDTALVTCTENILSGGPPPDDSDELGPLVGQLVVATNVFRRTPDGWKLWSHHASPVLAETGAEEGDESPD	soluble
GMTKKTGFFKRLKALTLPQKQLFATALCQRMLPNYQLFSEVCEFGDPAVLSTALELLWQSLYDPKLKFNIDVHLQRLEDNTPEPADFEAYGVYPAMDAVVAISTLLGAIQGKIEEDIVNISKLSSSTVANYIEAISDVDLVDEALDDFVFAHEVMEEEKELQNSLLEIIEENPKITAELVKGLRKDIIETGVSNIGISVA	soluble
